Publication PMC12051055, “Spectroscopy and crystallography define carotenoid oxygenases as a new subclass of mononuclear non-heme Fe^II enzymes” (The Journal of Biological Chemistry, 2025)

Substrate: CC=Cc1ccc(O)c(OC)c1
Test: steady-state kinetics of cleavage to vanillin by purified enzyme (apparent Km)
Assay type: biochemical, Neurospora crassa
Settings: Fe(II)
Text: steady-state kinetics of cleavage to vanillin by purified enzyme (apparent Km) on CAO1 (Neurospora crassa carotenoid oxygenase 1) | wildtype and T151V steady-state kinetics toward isoeugenol

B1: CAO1 (Neurospora crassa carotenoid oxygenase 1) (Neurospora crassa OR74A) (protein)
chain: MAEYVFSDAPKDSHGNGVKDAVPGKQPEELPPAPRYFQGENTAGFMRPVRFEGDITNLEVVGEIPKSIEGTFYRVMPEPHLPSFIPNDPWFNGDGNISGFYFKDGHVDLKQRYVRTEKFVREAEARRSLLGKYRNRYTDLVEFKIRSTANTNIVYWRGQLLALKEDSPPYAMDPETLETFGVYDFDGQLPSLTFTAHPKFDPVTREMVCFGYEAKGDGTRDICYYSFGPDGKIAETVWLVSPVCGMIHDFAVTENFVIFPIIPLVCDVERMKQGGDHWQWDYSIPMYIGVLPRRGAQGSDVKWFEAPHGFAGHVANAFEDDKGHIQLQMAYAKDNVFFWWPDANGKGPRPGEVEAHFANFVLDYQSDKLPLAEPTYLVDDDMEFPRIDDRVATRKHKHTFFCIFDRKPGVTDFEFVMPRAGGGAPMSNGLAHLNHETGDIQRYLPGPRKLTGECIFIPRNSEAAEGDGYVMVLLANYEDMCSELAVLDTKDLTNEVALIKLPVRLRPGLHGNWVDKSDVDGHPAPL
Km: 86.26 ± 13.49 µM
